In general, Kd refers to a measure of binding affinity in units of concentration. High values mean lower affinity, low ones higher affinity.

The assay deals with T1, RLC-depleted cardiac beta-myosin (myosin heavy chain) (Sus scrofa, UniProt P79293).
T1 chain: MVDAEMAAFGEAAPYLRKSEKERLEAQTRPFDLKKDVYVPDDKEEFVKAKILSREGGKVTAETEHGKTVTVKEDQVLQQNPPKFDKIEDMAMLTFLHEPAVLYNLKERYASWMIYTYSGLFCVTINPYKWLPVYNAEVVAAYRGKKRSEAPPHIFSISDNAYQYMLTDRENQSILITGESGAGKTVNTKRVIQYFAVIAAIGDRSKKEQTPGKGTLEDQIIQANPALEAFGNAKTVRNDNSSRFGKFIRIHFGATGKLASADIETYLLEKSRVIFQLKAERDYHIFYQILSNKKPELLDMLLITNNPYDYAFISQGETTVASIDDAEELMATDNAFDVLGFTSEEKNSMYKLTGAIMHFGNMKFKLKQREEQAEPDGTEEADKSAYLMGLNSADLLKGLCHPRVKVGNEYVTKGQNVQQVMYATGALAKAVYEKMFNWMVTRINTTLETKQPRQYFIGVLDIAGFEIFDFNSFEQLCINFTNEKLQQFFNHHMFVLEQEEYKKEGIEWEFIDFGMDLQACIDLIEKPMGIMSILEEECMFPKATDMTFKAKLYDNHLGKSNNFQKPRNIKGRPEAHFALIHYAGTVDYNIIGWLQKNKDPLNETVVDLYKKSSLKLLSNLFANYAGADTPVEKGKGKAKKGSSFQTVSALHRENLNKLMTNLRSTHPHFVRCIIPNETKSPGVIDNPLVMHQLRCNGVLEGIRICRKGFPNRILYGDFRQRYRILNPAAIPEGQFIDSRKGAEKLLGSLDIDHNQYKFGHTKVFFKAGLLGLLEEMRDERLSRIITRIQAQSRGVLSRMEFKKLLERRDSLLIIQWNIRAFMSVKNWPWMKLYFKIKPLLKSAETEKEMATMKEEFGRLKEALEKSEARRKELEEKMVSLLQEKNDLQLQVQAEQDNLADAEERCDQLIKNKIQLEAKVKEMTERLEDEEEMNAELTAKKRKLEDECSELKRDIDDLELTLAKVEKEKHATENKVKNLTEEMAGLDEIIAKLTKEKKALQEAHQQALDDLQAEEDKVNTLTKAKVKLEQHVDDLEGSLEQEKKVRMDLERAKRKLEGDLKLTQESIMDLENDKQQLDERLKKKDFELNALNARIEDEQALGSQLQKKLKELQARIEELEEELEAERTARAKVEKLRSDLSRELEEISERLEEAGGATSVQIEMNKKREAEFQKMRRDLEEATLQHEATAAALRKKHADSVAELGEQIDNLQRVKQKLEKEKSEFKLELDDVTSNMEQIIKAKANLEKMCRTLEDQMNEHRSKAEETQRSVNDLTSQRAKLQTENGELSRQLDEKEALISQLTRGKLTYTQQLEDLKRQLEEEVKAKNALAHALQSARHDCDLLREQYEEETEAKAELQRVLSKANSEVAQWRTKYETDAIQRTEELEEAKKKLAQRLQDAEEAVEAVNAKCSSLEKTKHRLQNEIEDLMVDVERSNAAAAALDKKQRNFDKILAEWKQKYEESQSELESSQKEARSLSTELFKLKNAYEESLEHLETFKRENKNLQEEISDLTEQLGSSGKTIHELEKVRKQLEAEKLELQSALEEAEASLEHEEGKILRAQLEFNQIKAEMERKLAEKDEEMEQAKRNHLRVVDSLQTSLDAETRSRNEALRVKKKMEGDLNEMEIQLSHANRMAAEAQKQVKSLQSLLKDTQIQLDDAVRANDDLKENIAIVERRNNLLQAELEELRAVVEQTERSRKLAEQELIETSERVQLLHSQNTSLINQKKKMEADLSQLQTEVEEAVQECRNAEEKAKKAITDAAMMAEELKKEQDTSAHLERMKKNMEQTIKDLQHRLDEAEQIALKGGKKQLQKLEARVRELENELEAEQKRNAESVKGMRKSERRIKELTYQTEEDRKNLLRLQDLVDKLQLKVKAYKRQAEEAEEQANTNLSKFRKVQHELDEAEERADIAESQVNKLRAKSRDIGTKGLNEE
Description: SDS-PAGE titration/co-precipitation binding isotherm.

B1: Myosin regulatory light chain 2, ventricular (protein)
chain: APKKAKKRAGGANSNVFSMFEQTQIQEFKEAFTIMDQNRDGFIDKNDLRDTFAALGRVNVKNEEIDEMIKEAPGPINFTVFLTMFGEKLKGADPEETILNAFKVFDPEGKGVLKADYVREMLTTQAERFSKEEVDQMFAAFPPDVTGNLDYKNLVHIITHGEEKD
For the molecule B1, the Kd is 3.2 µM.

B2: Myosin regulatory light chain 2, ventricular (protein)
chain: APKKAKKRAGGANSNVFSMFEQTQIQEFKEAFTIMDQNRDGFIDKNDLRDTFAALGRVNVKNEEIDEMIKEAPGPINFTVFLTMFGEKLKGAAPEETILNAFKVFDPEGKGVLKADYVREMLTTQAERFSKEEVDQMFAAFPPDVTGNLDYKNLVHIITHGEEKD
B2 yielded a Kd of 4.9 µM.

The record behind these values is PMC4472530 (2016).
